T1: FcγRIIb (human, UniProt P31994 43-217)
T1 construct: extracellular domain; also called FcgRIIb; 2b
T1 sequence (looked up): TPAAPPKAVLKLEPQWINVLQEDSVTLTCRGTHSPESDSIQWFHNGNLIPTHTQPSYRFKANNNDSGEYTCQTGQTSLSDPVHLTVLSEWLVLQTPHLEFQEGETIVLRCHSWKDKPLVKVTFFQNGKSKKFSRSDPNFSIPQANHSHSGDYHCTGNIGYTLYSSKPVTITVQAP

B1: GpH7-A5/GpH7-B3 variant D265_16H/GpL16-k0 (antibody, human IgG1, kappa)
heavy 1: not shown
heavy 2: not shown
light: DIVMTQSPLSLPVTPGEPASISCQASESLVHSNRNTYLHWYLQKPGQSPQLLIYKVSNRFSGVPDRFSGSGSGTDFTLKISRVEAEDVGVYYCSQNTHVPPTFGQGTKVEIERTVAAPSVFIFPPSDEQLKSGTASVVCLLNNFYPREAKVQWKVDNALQSGNSQESVTEQDSKDSTYSLSSTLTLSKADYEKHKVYACEVTHQGLSSPVTKSFNRGEC
notes: mutation in the GpH7-B3 chain only; also called He Ab
B2: GpH7-A5/GpH7-B3 variant D265_18N/GpL16-k0 (antibody, human IgG1, kappa)
heavy 1: not shown
heavy 2: not shown
light: B1 light
notes: as for B1
B3: GpH7-A5/GpH7-B3 variant D265_20W/GpL16-k0 (antibody, human IgG1, kappa)
heavy 1: not shown
heavy 2: not shown
light: B1 light
notes: as for B1
B4: GpH7-A5/GpH7-B3 variant S267_01G/GpL16-k0 (antibody, human IgG1, kappa)
heavy 1: not shown
heavy 2: not shown
light: B1 light
notes: as for B1
B5: GpH7-A5/GpH7-B3 variant S267_02A/GpL16-k0 (antibody, human IgG1, kappa)
heavy 1: not shown
heavy 2: not shown
light: B1 light
notes: as for B1
B6: GpH7-A5/GpH7-B3 variant S267_03V/GpL16-k0 (antibody, human IgG1, kappa)
heavy 1: not shown
heavy 2: not shown
light: B1 light
notes: as for B1
B7: GpH7-A5/GpH7-B3 variant S267_04F/GpL16-k0 (antibody, human IgG1, kappa)
heavy 1: not shown
heavy 2: not shown
light: B1 light
notes: as for B1
B8: GpH7-A5/GpH7-B3 variant S267_05P/GpL16-k0 (antibody, human IgG1, kappa)
heavy 1: not shown
heavy 2: not shown
light: B1 light
notes: as for B1
B9: GpH7-A5/GpH7-B3 variant S267_06M/GpL16-k0 (antibody, human IgG1, kappa)
heavy 1: not shown
heavy 2: not shown
light: B1 light
notes: as for B1
B10: GpH7-A5/GpH7-B3 variant S267_07I/GpL16-k0 (antibody, human IgG1, kappa)
heavy 1: not shown
heavy 2: not shown
light: B1 light
notes: as for B1
B11: GpH7-A5/GpH7-B3 variant V266_02A/GpL16-k0 (antibody, human IgG1, kappa)
heavy 1: not shown
heavy 2: not shown
light: B1 light
notes: as for B1
B12: GpH7-A5/GpH7-B3 variant V266_04F/GpL16-k0 (antibody, human IgG1, kappa)
heavy 1: not shown
heavy 2: not shown
light: B1 light
notes: as for B1
B13: GpH7-A5/GpH7-B3 variant V266_05P/GpL16-k0 (antibody, human IgG1, kappa)
heavy 1: not shown
heavy 2: not shown
light: B1 light
notes: as for B1
B14: GpH7-A5/GpH7-B3 variant V266_06M/GpL16-k0 (antibody, human IgG1, kappa)
heavy 1: not shown
heavy 2: not shown
light: B1 light
notes: as for B1
B15: GpH7-A5/GpH7-B3 variant V266_07I/GpL16-k0 (antibody, human IgG1, kappa)
heavy 1: not shown
heavy 2: not shown
light: B1 light
notes: as for B1
B16: GpH7-A5/GpH7-B3 variant V266_08L/GpL16-k0 (antibody, human IgG1, kappa)
heavy 1: not shown
heavy 2: not shown
light: B1 light
notes: as for B1
B17: GpH7-A5/GpH7-B3 variant V266_09D/GpL16-k0 (antibody, human IgG1, kappa)
heavy 1: not shown
heavy 2: not shown
light: B1 light
notes: as for B1
B18: GpH7-A5/GpH7-B3 variant V266_10E/GpL16-k0 (antibody, human IgG1, kappa)
heavy 1: not shown
heavy 2: not shown
light: B1 light
notes: as for B1
B19: GpH7-A5/GpH7-B3 variant V266_11K/GpL16-k0 (antibody, human IgG1, kappa)
heavy 1: not shown
heavy 2: not shown
light: B1 light
notes: as for B1

molecular target: T2, FcγRIIIa (human, UniProt P08637 17-208); experiment: SPR (Biacore), relative binding
T2 construct: extracellular domain; also called FcgRIIIa; 3a
T2 sequence (P08637 17-208): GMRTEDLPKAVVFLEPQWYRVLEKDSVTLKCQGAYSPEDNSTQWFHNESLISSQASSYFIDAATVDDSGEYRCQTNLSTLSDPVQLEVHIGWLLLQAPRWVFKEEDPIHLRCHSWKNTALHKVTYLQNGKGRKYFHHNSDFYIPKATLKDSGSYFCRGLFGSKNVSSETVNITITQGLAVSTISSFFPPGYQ

Question: With B1 as the binder, how does the He/Con_3a read?
Answer: 13.6 % of GpH7-A5/GpH7-B3/GpL16-k0

Question: With B2 as the binder, how does the He/Con_3a read?
Answer: 4.6 % of GpH7-A5/GpH7-B3/GpL16-k0

Question: Which He/Con_3a does the source give for B3 here?
Answer: -0.5 % of GpH7-A5/GpH7-B3/GpL16-k0

Question: With B4 as the binder, how does the He/Con_3a read?
Answer: 53.8 % of GpH7-A5/GpH7-B3/GpL16-k0

Question: For B5, which He/Con_3a is on record?
Answer: 150 % of GpH7-A5/GpH7-B3/GpL16-k0

Question: For B6, which He/Con_3a is on record?
Answer: 30.8 % of GpH7-A5/GpH7-B3/GpL16-k0

Question: Which He/Con_3a does the source give for B7 here?
Answer: 11 % of GpH7-A5/GpH7-B3/GpL16-k0

Question: With B8 as the binder, how does the He/Con_3a read?
Answer: 15.7 % of GpH7-A5/GpH7-B3/GpL16-k0

Question: B9 was tested. Which He/Con_3a did it give?
Answer: 66 % of GpH7-A5/GpH7-B3/GpL16-k0

Question: How did the He/Con_3a turn out when B10 was run?
Answer: 25.2 % of GpH7-A5/GpH7-B3/GpL16-k0

Question: For B11, which He/Con_3a is on record?
Answer: 57.4 % of GpH7-A5/GpH7-B3/GpL16-k0

Question: B12 was tested. Which He/Con_3a did it give?
Answer: 34.7 % of GpH7-A5/GpH7-B3/GpL16-k0

Question: B13 was tested. Which He/Con_3a did it give?
Answer: -0.7 % of GpH7-A5/GpH7-B3/GpL16-k0

Question: Which He/Con_3a does the source give for B14 here?
Answer: 85.8 % of GpH7-A5/GpH7-B3/GpL16-k0

Question: How did the He/Con_3a turn out when B15 was run?
Answer: 114 % of GpH7-A5/GpH7-B3/GpL16-k0

Question: B16 was tested. Which He/Con_3a did it give?
Answer: 118 % of GpH7-A5/GpH7-B3/GpL16-k0

Question: Which He/Con_3a does the source give for B17 here?
Answer: 2.7 % of GpH7-A5/GpH7-B3/GpL16-k0

Question: Which He/Con_3a does the source give for B18 here?
Answer: 4.1 % of GpH7-A5/GpH7-B3/GpL16-k0

Question: B19 was tested. Which He/Con_3a did it give?
Answer: -0.7 % of GpH7-A5/GpH7-B3/GpL16-k0

molecular target: T1, FcγRIIb; experiment: SPR (Biacore), relative binding

Question: With B1 as the binder, how does the He/Con_2b read?
Answer: 38.3 % of GpH7-A5/GpH7-B3/GpL16-k0

Question: How did the He/Con_2b turn out when B2 was run?
Answer: 6.1 % of GpH7-A5/GpH7-B3/GpL16-k0

Question: For B3, which He/Con_2b is on record?
Answer: 1.1 % of GpH7-A5/GpH7-B3/GpL16-k0

Question: For B4, which He/Con_2b is on record?
Answer: 105 % of GpH7-A5/GpH7-B3/GpL16-k0

Question: With B5 as the binder, how does the He/Con_2b read?
Answer: 243 % of GpH7-A5/GpH7-B3/GpL16-k0

Question: With B6 as the binder, how does the He/Con_2b read?
Answer: 192 % of GpH7-A5/GpH7-B3/GpL16-k0

Question: How did the He/Con_2b turn out when B7 was run?
Answer: 48 % of GpH7-A5/GpH7-B3/GpL16-k0

Question: For B8, which He/Con_2b is on record?
Answer: 31.5 % of GpH7-A5/GpH7-B3/GpL16-k0

Question: Which He/Con_2b does the source give for B9 here?
Answer: 210 % of GpH7-A5/GpH7-B3/GpL16-k0

Question: How did the He/Con_2b turn out when B10 was run?
Answer: 192 % of GpH7-A5/GpH7-B3/GpL16-k0

Question: Which He/Con_2b does the source give for B11 here?
Answer: 81 % of GpH7-A5/GpH7-B3/GpL16-k0

Question: For B12, which He/Con_2b is on record?
Answer: 57.6 % of GpH7-A5/GpH7-B3/GpL16-k0

Question: For B13, which He/Con_2b is on record?
Answer: 0.4 % of GpH7-A5/GpH7-B3/GpL16-k0

Question: How did the He/Con_2b turn out when B14 was run?
Answer: 251 % of GpH7-A5/GpH7-B3/GpL16-k0

Question: For B15, which He/Con_2b is on record?
Answer: 152 % of GpH7-A5/GpH7-B3/GpL16-k0

Question: How did the He/Con_2b turn out when B16 was run?
Answer: 236 % of GpH7-A5/GpH7-B3/GpL16-k0

Question: B17 was tested. Which He/Con_2b did it give?
Answer: 10.1 % of GpH7-A5/GpH7-B3/GpL16-k0

Question: Which He/Con_2b does the source give for B18 here?
Answer: 15.2 % of GpH7-A5/GpH7-B3/GpL16-k0

Question: For B19, which He/Con_2b is on record?
Answer: 1 % of GpH7-A5/GpH7-B3/GpL16-k0

molecular target: T2, FcγRIIIa; experiment: SPR; He/Con_3a divided by He/Con_2b (FcγRIIIa against FcγRIIb)

Question: Which “He_3a/2b (IIIa/IIb)” value does the source give for B1 here?
Answer: 0.35 ratio

Question: How did the “He_3a/2b (IIIa/IIb)” value turn out when B2 was run?
Answer: 0.74 ratio

Question: With B3 as the binder, how does the “He_3a/2b (IIIa/IIb)” value read?
Answer: -0.48 ratio

Question: B4 was tested. Which “He_3a/2b (IIIa/IIb)” value did it give?
Answer: 0.51 ratio

Question: How did the “He_3a/2b (IIIa/IIb)” value turn out when B5 was run?
Answer: 0.62 ratio

Question: How did the “He_3a/2b (IIIa/IIb)” value turn out when B6 was run?
Answer: 0.16 ratio

Question: B7 was tested. Which “He_3a/2b (IIIa/IIb)” value did it give?
Answer: 0.23 ratio

Question: For B8, which “He_3a/2b (IIIa/IIb)” value is on record?
Answer: 0.5 ratio

Question: Which “He_3a/2b (IIIa/IIb)” value does the source give for B9 here?
Answer: 0.31 ratio

Question: With B10 as the binder, how does the “He_3a/2b (IIIa/IIb)” value read?
Answer: 0.13 ratio

Question: Which “He_3a/2b (IIIa/IIb)” value does the source give for B11 here?
Answer: 0.71 ratio

Question: B12 was tested. Which “He_3a/2b (IIIa/IIb)” value did it give?
Answer: 0.6 ratio

Question: How did the “He_3a/2b (IIIa/IIb)” value turn out when B13 was run?
Answer: -1.98 ratio

Question: For B14, which “He_3a/2b (IIIa/IIb)” value is on record?
Answer: 0.34 ratio

Question: Which “He_3a/2b (IIIa/IIb)” value does the source give for B15 here?
Answer: 0.75 ratio

Question: How did the “He_3a/2b (IIIa/IIb)” value turn out when B16 was run?
Answer: 0.5 ratio

Question: B17 was tested. Which “He_3a/2b (IIIa/IIb)” value did it give?
Answer: 0.27 ratio

Question: For B18, which “He_3a/2b (IIIa/IIb)” value is on record?
Answer: 0.27 ratio

Question: With B19 as the binder, how does the “He_3a/2b (IIIa/IIb)” value read?
Answer: -0.7 ratio
